Test results as given in patent publication US20240043859A1, “HERBICIDE-RESISTANT PROTEIN, AND GENE AND USE THEREOF” (QINGDAO KINGAGROOT CHEMICAL COMPOUND CO., LTD., priority 2020, published 2024).

How the values were obtained:
[1] = format: cell-based, Escherichia coli
[2] = Chromogenic reaction of degrading herbicides in bacteria: triclopyr; format: cell-based, Escherichia coli; settings: recombinant E. coli expressing the gene

B1: QYD42: AAD-like enzyme, SEQ ID NO. 83; expressed from vectors pQY2309 (Arabidopsis), pQY2329 (maize), pQY2330 (soybean) (protein)
chain: MQITPIADATFGATVTGLRLATLDDAGFARLHAAWLQHALLVFPGQFLTNAEQIGFAKRFGPIERIGGGDIVAISNVKADGTVRQHSPAEWDDMMKVIVGNMAWHADSTYMPVMAQGAVFSAEVVPPTGGRTCFADMRAAYDALDDATRALVHQRSARHSLVYSQSKLGHVQQAGSAYVGYGMDTTATPLRPLVKRHPETGRLSLLIGRHAHAIPGLEEAESERFLEDLVAWACQPPRVVAHHWTAGDVVLWDNRCLLHRAEPWDFTLPRVMWHSRLAGHPETEAAPLV
modifications: Synthetic polypeptide, QYD42, D42
Chromogenic reaction of degrading herbicides in bacteria: MCPA [1]: Yes
Chromogenic reaction of degrading herbicides in bacteria: Triclopyr [2]: Yes
Chromogenic reaction of degrading herbicides in bacteria: Triclopyr ([2]; listed as D42): slight degradation
